Measured values published in patent US20210292396A1.

Experiments:
Assay in all cases: cell-based or functional assay
[1] = target: HIV Env of isolate 426c (HIV)
[2] = target: HIV Env of isolate QH0515.01 (HIV)
[3] = target: HIV Env of isolate T255-34 (HIV)
[4] = target: HIV Env of isolate T266-60 (HIV)
[5] = target: HIV Env of isolate BR025.9 (HIV)
[6] = target: Env of HIV isolate BG1168.01 (clade B) (HIV)
[7] = target: Env of HIV isolate 89.6.DG (clade B) (HIV)
[8] = target: HIV Env of isolate P1981.C5.3 (HIV)
[9] = target: HIV Env of isolate ZM55.28a (HIV)
[10] = target: HIV Env of isolate Q461.e2 (HIV)
[11] = target: Env of HIV isolate CNE55 (clade AE) (HIV)
[12] = target: HIV Env of isolate KER2018.11 (HIV)
[13] = target: HIV Env of isolate QH209.14M.A2 (HIV)
[14] = target: Env of HIV isolate 928-28 (clade AG) (HIV)
[15] = target: HIV Env of isolate M02138 (HIV)
[16] = target: HIV Env of isolate X2278.C2.B6 (HIV)
[17] = target: Env of HIV isolate CNE4 (clade B) (HIV)
[18] = target: Env of HIV isolate CNE21 (clade BC) (HIV)
[19] = target: Env of HIV isolate KER2008.12 (clade A) (HIV)
[20] = target: HIV Env of isolate DU151.02 (HIV)
[21] = target: HIV Env of isolate Ce1176.A3 (HIV)
[22] = target: HIV Env of isolate 16845-2.22 (HIV)
[23] = target: Env of HIV isolate ZM135.10a (clade C) (HIV)
[24] = target: HIV Env of isolate CH070.1 (HIV)
[25] = target: HIV Env of isolate 00836-2.5 (HIV)
[26] = target: HIV Env of isolate UG037.8 (HIV)
[27] = target: HIV Env of isolate ZM176.66 (HIV)
[28] = target: Env of HIV isolate R2184.c4 (clade AE) (HIV)
[29] = target: HIV Env of isolate DU156.12 (HIV)
[30] = target: HIV Env of isolate MB201.A1 (HIV)
[31] = target: Env of HIV isolate BJOX025000.01.1 (clade AE) (HIV)
[32] = target: Env of HIV isolate ADA.DG (clade B) (HIV)
[33] = target: Env of HIV isolate Q769.d22 (clade A) (HIV)
[34] = target: HIV Env of isolate RW020.2 (HIV)
[35] = target: HIV Env of isolate 45_01dG5 (HIV)
[36] = target: HIV Env of isolate CNE55 (HIV)
[37] = target: Env of HIV isolate WITO.33 (clade B) (HIV)
[38] = target: HIV Env of isolate 0013095-2.11 (HIV)
[39] = target: Env of HIV isolate 247-23 (clade D) (HIV)
[40] = target: Env of HIV isolate ZM109.4 (clade C) (HIV)
[41] = target: HIV Env of isolate CAP256.206.C9 (HIV)
[42] = target: HIV Env of isolate 25711-2.4 (HIV)
[43] = target: HIV Env of isolate ZM53.12 (HIV)
[44] = target: Env of HIV isolate YU2.DG (clade B) (HIV)
[45] = target: Env of HIV isolate CH119.10 (clade BC) (HIV)
[46] = target: HIV Env of isolate 3637.v5.c3 (HIV)
[47] = target: HIV Env of isolate 3326.v4.c3 (HIV)
[48] = target: Env of HIV isolate 6644.v2.c33 (clade C) (HIV)
[49] = target: HIV Env of isolate T257-31 (HIV)
[50] = target: Env of HIV isolate 16845-2.22 (clade C) (HIV)
[51] = target: HIV Env of isolate 16055-2.3 (HIV)
[52] = target: Env of HIV isolate CH038.12 (clade BC) (HIV)
[53] = target: HIV Env of isolate 3301.v1.c24 (HIV)
[54] = target: Env of HIV isolate TV1.29 (clade C) (HIV)

Question: Which results are given for PGT121 (antibody)?
Answer: IC80, pseudovirus neutralization [1]: > 50 µg/mL; IC80 [2]: > 50 µg/mL; IC80 [3]: > 50 µg/mL; IC80 [4]: 0.548 µg/mL; IC80, pseudovirus neutralization [5]: 0.0253 µg/mL; IC50, pseudovirus neutralization [6]: > 50 µg/mL; IC50, pseudovirus neutralization [7]: 0.0337 µg/mL; IC80, pseudovirus neutralization [8]: 0.013 µg/mL; IC80, pseudovirus neutralization [9]: 0.216 µg/mL; IC80 [10]: > 50 µg/mL; IC50, pseudovirus neutralization [11]: > 50 µg/mL; IC80 [12]: > 50 µg/mL; IC80 [13]: > 50 µg/mL; IC50, pseudovirus neutralization [14]: 5.76 µg/mL; IC80 [15]: > 50 µg/mL; IC80 [16]: 0.072 µg/mL; IC50, pseudovirus neutralization [17]: 1.9 µg/mL; IC50, pseudovirus neutralization [18]: 0.0143 µg/mL; IC50, pseudovirus neutralization [19]: 0.553 µg/mL; IC80, pseudovirus neutralization [20]: 0.0283 µg/mL; IC80, pseudovirus neutralization [21]: 0.066 µg/mL; IC80, pseudovirus neutralization [22]: 18.6 µg/mL; IC50, pseudovirus neutralization [23]: 0.748 µg/mL; IC80, pseudovirus neutralization [24]: 0.0423 µg/mL; IC80, pseudovirus neutralization [25]: > 50 µg/mL; IC80 [26]: 0.307 µg/mL; IC80, pseudovirus neutralization [27]: 27.6 µg/mL; IC50, pseudovirus neutralization [28]: > 50 µg/mL; IC80, pseudovirus neutralization [29]: 0.0367 µg/mL; IC80 [30]: 0.0283 µg/mL; IC50, pseudovirus neutralization [31]: > 50 µg/mL; IC50, pseudovirus neutralization [32]: 0.0333 µg/mL; IC50, pseudovirus neutralization [33]: > 50 µg/mL; IC80 [34]: 0.0177 µg/mL; IC80 [35]: 0.0257 µg/mL; IC80 [36]: > 50 µg/mL; IC50, pseudovirus neutralization [37]: 0.479 µg/mL; IC80, pseudovirus neutralization [38]: > 50 µg/mL; IC50, pseudovirus neutralization [39]: > 50 µg/mL; IC50, pseudovirus neutralization [40]: 1.96 µg/mL; IC80, pseudovirus neutralization [41]: 0.046 µg/mL; IC80, pseudovirus neutralization [42]: 0.0497 µg/mL; IC80, pseudovirus neutralization [43]: 0.00767 µg/mL; IC50, pseudovirus neutralization [44]: 0.0397 µg/mL; IC50, pseudovirus neutralization [45]: 0.0313 µg/mL; IC80, pseudovirus neutralization [46]: > 50 µg/mL; IC80, pseudovirus neutralization [47]: > 50 µg/mL; IC50, pseudovirus neutralization [48]: 0.037 µg/mL; IC80 [49]: > 50 µg/mL; IC50, pseudovirus neutralization [50]: 2.72 µg/mL; IC80, pseudovirus neutralization [51]: 2.78 µg/mL; IC50, pseudovirus neutralization [52]: 0.0113 µg/mL; IC80 [53]: 0.05 µg/mL; IC50, pseudovirus neutralization [54]: 0.146 µg/mL
